The text below walks through data of patent US20230203155A1 (ALMAC DISCOVERY, published 2023).

Test [1] deals with T1, human ROR1-hFc fusion protein (extracellular domain) (human).
T1 construct: Whole entry 'human ROR1-Fc (CHO)'; also called hROR1; huROR1-Fc
Description: SPR, ROR1-hFc on chip.
Description: (§1) Binding kinetics were determined using a Pioneer Surface Plasmon Resonance (SPR) instrument (SensiQ/Pall ForteBio). […] VNARs and VNAR-Fc molecules were tested at various concentrations and the Ka (M⁻¹s⁻¹), Kd (s⁻¹) and KD (nM) values were determined using QDat software (SensiQ/Pall ForteBio).

Test [2] deals with T2, human ROR2-hFc fusion protein (extracellular domain) (human).
T2 construct: Whole entry 'human ROR2-Fc (CHO)'; also called hROR2
The experiment in a line: SPR, ROR2-hFc on chip.

Test [3] has as its target T3, B1 VNAR with C-terminal His6Myc tag.
T3 construct: VNAR, E. coli; also called B1 his myc; B1HisMyc monomer
Description: competition ELISA: B1 pre-incubated with peptide, residual binding to coated huROR1-Fc.
Description: (§2) In brief, ELISA method as follows. Wells coated with 100 ng antigen and incubated, covered, at room temperature for 2 hr. Plates washed 3×400 ul per well with PBST (PBS+0.05% Tween 20 (v/v)), then blocked with 4% skimmed milk powder (w/v) in PBST for 1 hour at 37° C. Plates washed as before plus additional wash in PBS alone. Binding proteins were diluted in 4% milk PBST and incubated overnight at 4° C. Plates washed 3× with PBST, 3×PBS and binding detected using appropriate secondary detection antibody in 4% milk PBST, room temperature 1 hour. […] Rabbit anti-Mouse IgG H&L, HRP (Abcam #ab97046) [0360] Mouse anti-polyHis, HRP (Sigma #A7058)
(§3) Competition assays were conducted as described in the methods with all four peptides reconstituted in PBS.

Test [4] addresses T4, D3 his myc.
T4 construct: VNAR; made in E. coli and in HEK293 (expression system under assay); also called D3 WT
The experiment in a line: competition ELISA: D3 pre-incubated with peptide, residual binding to coated huROR1-Fc.

The target of test [5] is T5, P3A1 his myc.
T5 construct: VNAR; also called P3A1 6xHis myc
T5 VNAR: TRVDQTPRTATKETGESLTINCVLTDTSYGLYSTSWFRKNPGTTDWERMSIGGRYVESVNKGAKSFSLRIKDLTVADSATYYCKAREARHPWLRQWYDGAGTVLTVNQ
Description: competition ELISA: P3A1 pre-incubated with peptide, residual binding to coated huROR1-Fc.
Description: as §2, §3

In test [6] the target is T6, D3-[G4S]5-D3 his myc.
T6 construct: VNAR homodimer by genetic fusion; also called D3-D3; D3 dimer
The experiment in a line: competition ELISA: D3-D3 pre-incubated with peptide, residual binding to coated huROR1-Fc.

Test [7] concerns the target T2, human ROR2-hFc fusion protein …. Description: monoclonal phage ELISA on coated ROR2-Fc.
Test [8] has as its target T1, human ROR1-hFc fusion protein …. The experiment in a line: SPR, ROR1-hFc on chip. The source holds these as a separate data set.
Description: as §1
The target in test [9] is T2, human ROR2-hFc fusion protein …. Description: SPR, ROR2-hFc on chip. This is another data set of the same source.
Description: as §1
(§4) Binding kinetics were determined using a SPR (as previously described) or using Biolayer interferometry (K2 Octet instrument/Pall ForteBio). […] VNARs and VNAR-Fc molecules were tested at various concentrations and the Ka (M−1s−1), Kd (s−1) and KD (nM) values were determined using the Octet data analysis HT software (Pall ForteBio).
The target of test [10] is T7, rat ROR1-Fc fusion protein (rat).
T7 construct: Whole entry 'rat ROR1-Fc (CHO)'; also called rROR1
T7 sequence (chain, as listed by the source limits assumed): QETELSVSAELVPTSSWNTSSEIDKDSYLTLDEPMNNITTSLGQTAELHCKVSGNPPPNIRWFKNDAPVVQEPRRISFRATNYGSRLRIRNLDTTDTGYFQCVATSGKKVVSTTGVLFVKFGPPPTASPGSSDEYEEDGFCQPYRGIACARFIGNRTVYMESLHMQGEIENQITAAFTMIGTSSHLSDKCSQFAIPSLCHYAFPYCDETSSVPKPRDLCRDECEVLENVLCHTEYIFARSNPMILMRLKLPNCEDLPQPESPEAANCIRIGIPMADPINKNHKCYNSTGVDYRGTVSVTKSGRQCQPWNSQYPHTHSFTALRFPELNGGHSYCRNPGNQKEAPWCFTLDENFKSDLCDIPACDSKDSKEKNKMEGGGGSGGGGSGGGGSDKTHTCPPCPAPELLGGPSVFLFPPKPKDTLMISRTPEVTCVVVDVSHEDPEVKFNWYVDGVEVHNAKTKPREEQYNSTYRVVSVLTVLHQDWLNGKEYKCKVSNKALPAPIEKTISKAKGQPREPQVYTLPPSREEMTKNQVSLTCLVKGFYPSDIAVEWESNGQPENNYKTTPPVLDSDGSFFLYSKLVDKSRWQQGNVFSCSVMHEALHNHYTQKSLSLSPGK
The experiment in a line: SPR, rat ROR1 on chip.
Description: as §1

Test [11] addresses T8, mouse ROR1-Fc fusion protein (mouse).
T8 construct: Whole entry 'mouse ROR1-Fc (CHO)'; also called mROR1
Description: SPR, mouse ROR1 on chip.
Description: as §1

In test [12] the target is T8, mouse ROR1-Fc fusion protein. The experiment in a line: ELISA.
Test [13] has as its target T9, human serum albumin (human, UniProt P02768 25-609).
T9 construct: also called HSA
Description: BLI, HSA on sensor.
Description: as §4

Test [14] has as its target T1, human ROR1-hFc fusion protein …. The experiment in a line: BLI, ROR1-hFc on sensor.
Description: as §4
Test [15] shares this target. The experiment in a line: BLI, ROR1-hFc on sensor, 200 nM HSA present.
Description: as §4
Test [16] concerns the target T10, human ROR1 on the surface of ROR1hi human cancer cell lines (human, UniProt Q01973 30-937).
T10 construct: whole, on cells; Cell line is named under assay; also called cell surface ROR1
The experiment in a line: flow cytometry, A549 (ROR1hi) cells, 4°C.

Test [17] concerns the target T1, human ROR1-hFc fusion protein …. The experiment in a line: SPR, ROR1-hFc on chip. This is another data set of the same source.
Description: as §1
(§5) The ability of the VNAR-MMAE conjugates and VNAR-fluorescein conjugates to bind to human ROR1 ECD was determined by SPR using the procedures described above.
Test [18] deals with T2, human ROR2-hFc fusion protein …. The experiment in a line: SPR, ROR2-hFc on chip. The source holds these as a separate data set.
Description: as §1, §5

T1 sequence (chain, as listed by the source limits assumed): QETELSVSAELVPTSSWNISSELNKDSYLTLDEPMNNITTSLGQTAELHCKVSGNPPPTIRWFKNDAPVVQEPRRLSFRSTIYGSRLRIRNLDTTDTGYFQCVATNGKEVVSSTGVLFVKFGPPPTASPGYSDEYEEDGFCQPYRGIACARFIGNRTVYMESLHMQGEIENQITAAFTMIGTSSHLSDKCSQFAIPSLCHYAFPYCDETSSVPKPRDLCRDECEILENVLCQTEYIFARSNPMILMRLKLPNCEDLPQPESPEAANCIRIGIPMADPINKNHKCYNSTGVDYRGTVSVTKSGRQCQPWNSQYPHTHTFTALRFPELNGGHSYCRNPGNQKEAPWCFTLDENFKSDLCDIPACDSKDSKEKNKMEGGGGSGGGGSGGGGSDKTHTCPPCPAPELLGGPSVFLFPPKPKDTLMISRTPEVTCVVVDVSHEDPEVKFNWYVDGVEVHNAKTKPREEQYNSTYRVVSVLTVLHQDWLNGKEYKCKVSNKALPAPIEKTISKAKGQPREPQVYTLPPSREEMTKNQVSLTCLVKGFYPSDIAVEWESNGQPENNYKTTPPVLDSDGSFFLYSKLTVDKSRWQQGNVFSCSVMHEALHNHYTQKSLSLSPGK
T2 sequence (chain, as listed by the source limits assumed): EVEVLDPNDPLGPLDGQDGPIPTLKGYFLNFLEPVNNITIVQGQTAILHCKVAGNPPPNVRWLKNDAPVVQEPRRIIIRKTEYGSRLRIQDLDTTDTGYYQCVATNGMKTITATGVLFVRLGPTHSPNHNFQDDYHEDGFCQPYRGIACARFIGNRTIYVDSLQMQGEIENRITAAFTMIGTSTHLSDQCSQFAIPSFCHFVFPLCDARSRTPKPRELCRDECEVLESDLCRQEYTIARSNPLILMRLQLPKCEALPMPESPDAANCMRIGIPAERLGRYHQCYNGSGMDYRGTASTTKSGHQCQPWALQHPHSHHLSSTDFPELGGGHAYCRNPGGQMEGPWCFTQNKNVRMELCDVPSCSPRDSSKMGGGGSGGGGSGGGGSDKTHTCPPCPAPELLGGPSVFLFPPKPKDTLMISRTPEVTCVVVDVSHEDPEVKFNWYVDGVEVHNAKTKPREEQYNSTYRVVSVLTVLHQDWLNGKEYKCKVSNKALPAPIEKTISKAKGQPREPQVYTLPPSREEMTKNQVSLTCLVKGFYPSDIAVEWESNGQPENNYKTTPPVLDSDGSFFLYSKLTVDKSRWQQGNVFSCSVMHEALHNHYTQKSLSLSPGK
T8 sequence (chain, as listed by the source limits assumed): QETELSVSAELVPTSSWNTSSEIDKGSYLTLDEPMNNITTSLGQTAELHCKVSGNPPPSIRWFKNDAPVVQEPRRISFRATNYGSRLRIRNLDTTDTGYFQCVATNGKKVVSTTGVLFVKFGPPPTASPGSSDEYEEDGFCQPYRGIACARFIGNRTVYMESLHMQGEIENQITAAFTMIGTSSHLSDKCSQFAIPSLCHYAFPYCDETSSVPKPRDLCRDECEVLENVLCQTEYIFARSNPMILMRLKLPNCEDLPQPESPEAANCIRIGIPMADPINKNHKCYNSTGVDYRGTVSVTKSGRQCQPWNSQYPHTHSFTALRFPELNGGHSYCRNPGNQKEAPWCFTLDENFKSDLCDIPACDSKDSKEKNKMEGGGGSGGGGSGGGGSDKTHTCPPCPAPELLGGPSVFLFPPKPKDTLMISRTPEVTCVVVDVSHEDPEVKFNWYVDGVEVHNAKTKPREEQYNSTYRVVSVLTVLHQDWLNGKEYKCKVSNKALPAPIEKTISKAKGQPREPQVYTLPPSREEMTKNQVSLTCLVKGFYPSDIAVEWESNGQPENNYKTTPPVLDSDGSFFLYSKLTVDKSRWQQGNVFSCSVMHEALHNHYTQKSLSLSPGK

B1: P3A1 his (VNAR)
VNAR: TRVDQTPRTATKETGESLTINCVLTDTSYGLYSTSWFRKNPGTTDWERMSIGGRYVESVNKGAKSFSLRIKDLTVADSATYYCKAREARHPWLRQWYDGAGTVLTVNQ
notes: VNAR; also called P3A1 6xHis
In [1], B1 registered a Kd of 7.8 nM, a koff of 0.0206 s⁻¹ and a kon of 2.92e+06 M⁻¹ s⁻¹. Further, the binding result in test [2] is given as “no binding”.

B2: Peptide 4 (peptide)
peptide: QCVATNGKEVVSSTGVLFVKFGPPPTASPGYSDEYE
notes: linear ROR1 ECD peptide
As to B2, the binding result in test [3] is given as “no binding (tested: 10 uM)”; in test [4] it was “no binding”; in test [5], “no binding (tested: about 500 uM as the axis is labelled)”; in [6], “no binding”.

B3: Peptide 3 (peptide)
peptide: CQPWNSQYPHTHTFTALRFP
notes: linear ROR1 ECD peptide
For the molecule B3, the binding result in test [3] is reported as “no binding (tested: 10 uM)”; in test [4], “no binding”; in [5], “no binding (tested: about 500 uM as the axis is labelled)”; in test [6] it was “no binding”.

B4: Peptide 1 (peptide)
peptide: YMESLHMQGEIENQI
notes: linear ROR1 ECD peptide
As to B4, the binding result in test [3] is “no binding (tested: 10 uM)”; in test [4] it was “no binding”; in test [5], “no binding (tested: about 500 uM as the axis is labelled)”; in [6], “no binding”.

B5: E7 (VNAR)
VNAR: TRVDQTPRTATKETGESLTINCVVTGAKYGLAATYWYRKNPGSSNQERISISGRYVESVNKRTMSFSLRIKDLTVADSATYYCKAYPWAMWGQWYDGAGTVLTVN
notes: also called E7 phage clone; E7 monoclonal phage
On to B5, for which the binding result in test [7] is given as “no binding”.

B6: CPF7 his myc (VNAR)
VNAR: TRVDQTPRTATKETGESLTINCVVTGAKYGLFATYWYRKNPGSSNQERISISGRYVESVNKRTMSFSLRIKDLTVADSATYYCKAVFMPQHWHPAAHWYDGAGTVLTVNQ
notes: VNAR
Take B6: the Kd in [8] was 13.6 nM; in [10], 68.6 nM; in [11], 19.1 nM. Besides, the koff in [8] worked out at 0.0296 s⁻¹; in test [10], 0.0366 s⁻¹; in test [11], 0.032 s⁻¹. Besides, the kon was 2.33e+06 M⁻¹ s⁻¹ in test [8], 772000 M⁻¹ s⁻¹ in test [10] and 2.26e+06 M⁻¹ s⁻¹ in test [11]. In addition, the binding result in test [9] is on record as “no binding”.

B7: P3A1 Wobbe-G4S-BA11-Wobbe-G4S-P3A1 CysHisMyc (VNAR)
chain: TRVDQTPRTATKETGESLTINCVLTDTSYGLYSTSWFRKNPGTTDWERMSIGGRYVESVNKGAKSFSLRIKDLTVADSATYYCKAREARHPWLRQWYDGAGTVLTVNPGVQPSPGGGGSTRVDQSPSSLSASVGDRVTITCVLTDTSYPLYSTYWYRKNPGSSNKEQISISGRYSESVNKGTKSFTLTISSLQPEDSATYYCRAMSTNIWTGDGAGTKVEIKPGVQPSPGGGGSTRVDQTPRTATKETGESLTINCVLTDTSYGLYSTSWFRKNPGTTDWERMSIGGRYVESVNKGAKSFSLRIKDLTVADSATYYCKAREARHPWLRQWYDGAGTVLTVNQACKAHHHHHHGAEFEQKLISEEDL
notes: VNAR fusion; also called P3A1-BA11-P3A1
Take B7: in test [12], the binding result was “binds”. Also, the Kd was found to be 5.58 nM in test [13], 2.54 nM in test [14] and 1.6 nM in test [15]. For the same molecule, the koff in test [13] turned out to be 0.00069 s⁻¹; in test [14] it was 0.00044 s⁻¹. The figures for the kon in test [13] and in test [14] were 124000 M⁻¹ s⁻¹ and 173000 M⁻¹ s⁻¹, respectively.

B8: Peptide 2 (peptide)
peptide: RSTIYGSRLRINLDTTDTGYFQ
notes: linear ROR1 ECD peptide; insoluble in PBS
As to B8, the binding result in [3] is reported as “no binding (tested: 10 uM)”; in test [4], “no binding”; in test [5] it was “no binding (tested: about 500 uM as the axis is labelled)”; in test [6] it was “no binding”.

B9: P3A1 (VNAR)
VNAR: TRVDQTPRTATKETGESLTINCVLTDTSYGLYSTSWFRKNPGTTDWERMSIGGRYVESVNKGAKSFSLRIKDLTVADSATYYCKAREARHPWLRQWYDGAGTVLTVN
notes: also called P3A1 phage clone; P3A1 monoclonal phage
Regarding B9, in test [7], the binding result is given as “no binding”.

B10: B1G1-B1G1 HisMyc (VNAR)
chain: TRVDQSPSSLSASVGDRVTITCVLTGANYGLASTYWYRKNPGSSNKEQISISGRYSESVNKGTKSFTLTISSLQPEDSATYYCRAYPWGAGAPWLVQWYDGAGTKVEIKGGGGSGGGGSGGGGSGGGGSGGGGSTRVDQSPSSLSASVGDRVTITCVLTGANYGLASTYWYRKNPGSSNKEQISISGRYSESVNKGTKSFTLTISSLQPEDSATYYCRAYPWGAGAPWLVQWYDGAGTKVEIKQASGAHHHHHHGAEFEQKLISEEDL
notes: VNAR fusion
On to B10, for which the “Median YL1-PE” value in [16] is 1470.

B11: BA11 Wobbe-G4S-P3A1-Wobbe-G4S-P3A1-CysHisMyc (VNAR)
chain: TRVDQSPSSLSASVGDRVTITCVLTDTSYPLYSTYWYRKNPGSSNKEQISISGRYSESVNKGTKSFTLTISSLQPEDSATYYCRAMSTNIWTGDGAGTKVEIKPGVQPSPGGGGSTRVDQTPRTATKETGESLTINCVLTDTSYGLYSTSWFRKNPGTTDWERMSIGGRYVESVNKGAKSFSLRIKDLTVADSATYYCKAREARHPWLRQWYDGAGTVLTVNPGVQPSPGGGGSTRVDQTPRTATKETGESLTINCVLTDTSYGLYSTSWFRKNPGTTDWERMSIGGRYVESVNKGAKSFSLRIKDLTVADSATYYCKAREARHPWLRQWYDGAGTVLTVNQACKAHHHHHHGAEFEQKLISEEDL
notes: VNAR fusion; also called BA11-P3A1-P3A1
Turning to B11, in [12], the binding result is on record as “binds”. In test [13], this molecule returned a Kd of 5.08 nM, a koff of 0.000566 s⁻¹ and an association rate constant (kon) of 111000 M⁻¹ s⁻¹. Further, in test [14], the Kd was found to be 3.47 nM, the off-rate (koff) came out at 0.000447 s⁻¹ and the kon was 129000 M⁻¹ s⁻¹. In [15], this molecule displayed a dissociation constant Kd of 2.53 nM.

B12: P3A1-P3A1-S-mal-vcMMAE (VNAR)
chain: TRVDQTPRTATKETGESLTINCVLTDTSYGLYSTSWFRKNPGTTDWERMSIGGRYVESVNKGAKSFSLRIKDLTVADSATYYCKAREARHPWLRQWYDGAGTVLTVNGGGGSGGGGSGGGGSGGGGSGGGGSTRVDQTPRTATKETGESLTINCVLTDTSYGLYSTSWFRKNPGTTDWERMSIGGRYVESVNKGAKSFSLRIKDLTVADSATYYCKAREARHPWLRQWYDGAGTVLTVNQASGAHHHHHHGAEFEQKLISEEDL
modifications: C-terminal thiol conjugated to MC vc PAB MMAE
On to B12, for which, in test [17], the Kd was 0.59 nM, the koff was determined as 0.0026 s⁻¹ and the kon was determined as 4.96e+06 M⁻¹ s⁻¹. For the same molecule, the binding result in [18] is recorded as “no binding”.

B13: P3A1-P3A1-Ox-vcMMAE (VNAR)
chain: TRVDQTPRTATKETGESLTINCVLTDTSYGLYSTSWFRKNPGTTDWERMSIGGRYVESVNKGAKSFSLRIKDLTVADSATYYCKAREARHPWLRQWYDGAGTVLTVNGGGGSGGGGSGGGGSGGGGSGGGGSTRVDQTPRTATKETGESLTINCVLTDTSYGLYSTSWFRKNPGTTDWERMSIGGRYVESVNKGAKSFSLRIKDLTVADSATYYCKAREARHPWLRQWYDGAGTVLTVNQASGAHHHHHHGAEFEQKLISEEDL
modifications: C-terminal aminoxy oxime-linked to benzaldehyde PEG2 vc PAB MMAE
On to B13, for which, in test [17], the Kd stood at 1.43 nM, the koff was 0.00277 s⁻¹ and the kon was determined as 2.07e+06 M⁻¹ s⁻¹. For the same molecule, the binding result in [18] was “no binding”.

B14: P3A1-P3A1-Ox-MMAE (VNAR)
chain: TRVDQTPRTATKETGESLTINCVLTDTSYGLYSTSWFRKNPGTTDWERMSIGGRYVESVNKGAKSFSLRIKDLTVADSATYYCKAREARHPWLRQWYDGAGTVLTVNGGGGSGGGGSGGGGSGGGGSGGGGSTRVDQTPRTATKETGESLTINCVLTDTSYGLYSTSWFRKNPGTTDWERMSIGGRYVESVNKGAKSFSLRIKDLTVADSATYYCKAREARHPWLRQWYDGAGTVLTVNQASGAHHHHHHGAEFEQKLISEEDL
modifications: C-terminal aminoxy oxime-linked to benzaldehyde PEG4 MMAE
In the case of B14, in test [17], the Kd was 0.78 nM, the koff was found to be 0.0032 s⁻¹ and the kon came out at 4.2e+06 M⁻¹ s⁻¹. Also, the binding result in test [18] is recorded as “no binding”.
